Bridge positions count the residues as written; N and C are the ends. Square brackets hold non-standard residues; d marks the D form. Primed or numbered codes have the meaning given here. Glu(Bi-PEG)″ = Nδ-(N-biotinyl-3-(2-(2-(3-aminopropyloxy)-ethoxy)-ethoxypropyl)-L-glutamine, biotin-PEG linker residue; Glu(Bi-PEG) = N-terminal added Glu carrying a biotin-linker; Glu(Bi-PEG)(3) = N-terminal added Glu biotin-linker residue; Gla = N[C@@H](CC(C(=O)O)C(=O)O)C(=O)O
T1: Bi-SEQ ID NO: 3, *H**Glu(Bi-PEG)*…laEA*NH2 (disulfide 6-11; not fully specified)
T1 construct: Synthetic peptide; 12-27 of mature prothrombin with Gla at 25
T1 peptide: {Glu(Bi-PEG)″}-NLERECVEETCSY[Gla]EA-NH2

T2: Bi-SEQ ID NO: 1, *H**Glu(Bi-PEG)*NLERECVEETCSYEEA*NH2 (disulfide 6-11 (inferred))
T2 construct: Synthetic peptide
T2 peptide: {Glu(Bi-PEG)}-NLERECVEETCSYEEA-NH2

T3: Bi-SEQ ID NO: 4, *H**Glu(Bi-PEG)*…laTCSYEEA*NH2 (disulfide 6-11)
T3 construct: Synthetic peptide; 12-27 of mature prothrombin with Gla at 20
T3 peptide: {Glu(Bi-PEG)(3)}-NLERECVE[Gla]TCSYEEA-NH2

B1: monoclonal anti-PIVKA-II antibody 7A10 (antibody, V domains shown)
VH: QSLEESGGRLVTPGTPLTLTCTVSGIDLSTYAMGWVRQAPGKGLEYIGIIRSSGRTYYASWAKGRFTVSKTSSTTVDLSMTSPTTEDTATYYCYRNVSLWGQGTLVSVSS
VL: DVVMTQTPSSVEAAVGGTVTIKCQASQSIGNNLAWYQQKPGQRPNLLIYSASTLASGVPSRFRGSGSGTEFTLTISGVQCDDAATYYCQSYAGVSESVFWYSFGGGTGVVVK
notes: Recombinant rabbit IgG from B-cell cloning, expressed in HEK cells
B2: monoclonal anti-PIVKA-II antibody 9A6 (antibody, V domains shown)
VH: QSVEESGGRLITPGTPLTLTCTVSGFDLSRYAVGWVRQAPGKGLEYIGLIVSDGRTYYASWAKGRFTVSKTSSTTVDLKMTSPTAGDTATYYCYRNVSLWGQGTLVSVSS
VL: DVVMTQTPSSVEAAVGGTVTIKCQASQSIGSNLAWYQQKPGQPPKLLIYSASTLASGVPSRFSGSGSGTEFTLTFSGVQCGDAATYFCQSYAGVSANIFYYSFGGGTEVVVM
notes: as for B1
B3: monoclonal anti-PIVKA-II antibody 13H7 (antibody, V domains shown)
VH: QSVEESGGRLVTPETPLTLTCTVSGFDLSRYAMGWVRQAPGKGLEYIGLIVSDGRTYYASWAKGRFTISKTSSTTVDLKMASPTTEDTATYYCYRNVSLWGQGTLVSVSE
VL: DVVMTQTPSSVEAAVGGTVTIKCQASQSIGSNLAWYQQKPGQPPKLLIYSASTLASGVSSRFKGSGSGTEFTLTISDLECADAATYYCQSYAGISANIFYYAFGGGTEVVVM
notes: as for B1
B4: monoclonal anti-PIVKA-II antibody 4E8 (antibody, V domains shown)
VH: QSVEESGGRLVTPGTPLTLTCTVSGFDLSRYAVGWVRQAPGKGLEYIGLITSDGRTYYANWAKGRFTVSKTSSTTVDLKMTSPTTEDTATYYCYRNVSLWGQGTLVSVSS
VL: DVVMTQTPASVEAAVGGTVTIKCQASQSIGSNLAWYQQKSGQPPKLLIYSASTLAPGVSSRFSGSGSGTEFTLTFTGVQCGDAATYFCQSYAGVSANIFYYSFGGGTEVVVM
notes: as for B1

Tests used:
Assay in all cases: ECL assay (Elecsys 2010), ruthenylated antibody and biotinylated peptide, streptavidin beads
[1] = target: T1, Bi-SEQ ID NO: 3, …
Method: (§1) An Elecsys 2010 immunoanalyzer was used to determine the reactivity of selected anti-PIVKA-II antibodies with the above peptide as follows:
(§2) 50 μL of ruthenylated anti-PIVKA-II antibody (300 ng/mL in assay buffer—s. example 2.4) were reacted with 50 μL of biotinylated peptide (2.5 ng/mL in assay buffer) and 70 μL assay-buffer in a first step, and incubated at 37° C. for 9 min. After addition of 30 μL streptavidin coated paramagnetic Elecsys® beads (0.7 mg/mL; see example 2.4) and a second incubation step (37° C., 9 min), the reaction mixture was aspirated into the measuring cell where the microparticles are magnetically captured onto the surface of the measuring-electrode. Unbound substances are removed with ProCell system-buffer (Roche Diagnostics GmbH, Germany). Application of a voltage to the electrode then induces electrochemiluminescense-based emission of light which is measured by a photomultiplier.

[2] = target: T2, Bi-SEQ ID NO: 1, …
Method: as §1, §2

[3] = target: T3, Bi-SEQ ID NO: 4, …
Method: as §1, §2

[4] = target: Bi-SEQ ID NO: 2, *H**Glu(Bi-PEG)*NLERECVGlaETCSYEEA*NH2

Row | Binder | reactivity (signal normalized to Bi-SEQ ID NO:1) [1] [%] | reactivity (signal normalized to Bi-SEQ ID NO:1) [2] [%] | reactivity (signal normalized to Bi-SEQ ID NO:1) [3] [%] | reactivity (signal normalized to Bi-SEQ ID NO:1) [4] [%]
1 | B1 | 105 | 100 | 68 | 4
2 | B2 | 107 | 100 | 78 | 5
3 | B3 | 107 | 100 | 68 | 5
4 | B4 | 108 | 100 | 76 | 5

From US20230055005A1 (ROCHE DIAGNOSTICS OPERATIONS, published 2023)
